This passage reports protein stability index results from the supplement of paper PMC10567573.

± gives the standard deviation.

This series can be described thus: protein stability index of a GFP-peptide fusion (GPS, HEK-293T) (PSI 1-6); higher = more stable. Conditions: c terminus: a fixed tail appended.
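Further: 24-mer peptide tiles fused after GFP, lentivirally expressed, FACS-sorted into six equal bins by GFP/DsRed ratio, decoded by Illumina sequencing, PSI is the read-weighted mean bin number.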

For IPSEEWPNPPTLQEAGLSHTEVLF [FAF2], the protein stability index is, setting by setting: (treatment: DMSO) 3.8 ± 0.23; (treatment: MLN4924 1 uM, 8 h) 3.81 ± 0.21.
The like results for IQELELQAQIHGLPVPPTPGLLSL [TFE3] were, in that order, 2.62 ± 0.22 and 2.56 ± 0.28.
The matching figures for IQQTTRYFSTPQTMDLFLNYSMNM [NANOGP8]: 2.7 ± 0.48 and 2.58 ± 0.58.
The like results for IRERATIEETYSKAMAKLSKLASN [FCHO1] were, in that order, 3.02 ± 0.19 and 2.91 ± 0.3.
The sequence IRKLVAEKLNIPWNHIRLQRTAKG [AASDHPPT] yielded a protein stability index (treatment: DMSO) of 2.31 ± 0.27 and a protein stability index (treatment: MLN4924 1 uM, 8 h) of 2.44 ± 0.33.
The matching figures for IRSMDPSALASDRFNLILADTNSD [DCAF4]: 4 ± 0.14 and 3.85 ± 0.11.
The matching figures for IRVWFQNKRCKDKKKSILMKQLQQ [ISL2]: 2.08 ± 0.26 and 2.17 ± 0.23.
Regarding ISDALIRRVHLTEDQWGKGTLTPR [TRIM9], the protein stability index runs as follows: (treatment: DMSO) 2.92 ± 0.14; (treatment: MLN4924 1 uM, 8 h) 3.11 ± 0.41.
The matching figures for ISDNSISWSAGLHNRYTENSLRGV [FUT8]: 2.87 ± 0.29 and 2.87 ± 0.15.
With ISHRSTVASCMHRQETVDCLKKFN [CAMK2A], the protein stability index is, setting by setting: (treatment: DMSO) 3.23 ± 0.077; (treatment: MLN4924 1 uM, 8 h) 3.14 ± 0.11.
The matching figures for ISLRVYRKVLQAVHRGDGANPFQA [RTN2]: 2.59 ± 0.46 and 2.2 ± 0.32.
Turning to ISVLQQQGSLSNTYLSKVDPDGKK [FBXO33], the protein stability index was 4.45 ± 0.18 (treatment: DMSO) and 4.46 ± 0.2 (treatment: MLN4924 1 uM, 8 h).
Turning to ITAFYNEARARARANRGILQQERQ [DNAJC4], the protein stability index runs as follows: (treatment: DMSO) 3.4 ± 0.5; (treatment: MLN4924 1 uM, 8 h) 3.81 ± 0.36.
The like results for ITLSQEQIQKYTDCLQFYVNSTLK [RTN1] were, in that order, 2.08 ± 0.1 and 2.1 ± 0.086.
The like results for ITTKTADGKCAYRASYSDGKLKAP [MLH1] were, in that order, 3.78 ± 0.2 and 3.67 ± 0.12.
The matching figures for ITVAELREAVPALLGEPLAGPELD [CABP4]: 3.7 ± 0.39 and 3.84 ± 0.44.
In the case of IVEKRVLAHLAPLFDNPKLDKELR [INTS3], the protein stability index reads like this: (treatment: DMSO) 2.13 ± 0.2; (treatment: MLN4924 1 uM, 8 h) 2.13 ± 0.37.
The sequence IVRFLESNWFVWVTQMNHIPMHID [FADS1] had a protein stability index (treatment: DMSO) of 3.08 ± 0.95 and a protein stability index (treatment: MLN4924 1 uM, 8 h) of 3.1 ± 1.
The matching figures for IWAKTPPITRKAAQLYTLWVTFQV [DHCR7]: 3.3 ± 0.52 and 2.81 ± 0.6.
The like results for IWFIVPISCVICNDIMAYMFGFFF [CDS2] were, in that order, 3.19 ± 0.25 and 3.11 ± 0.61.
The like results for IYPVWTYSYLVLLFPVFLATDYLR [SLC19A2] were, in that order, 3.11 ± 0.53 and 3.29 ± 0.37.
Take KAPVQNEAPALGGGEYQEPGGNVK [BEX5]: the protein stability index reads like this: (treatment: DMSO) 5.48 ± 0.21; (treatment: MLN4924 1 uM, 8 h) 5.54 ± 0.26.
The matching figures for KAVNDETCKASHITSSVFPSASLG [FBXO34]: 3.66 ± 0.2 and 3.61 ± 0.18.
The like results for KCIFTQFRIILGDFDYNAIDNANR [PKD2L1] were, in that order, 2.41 ± 0.32 and 2.52 ± 0.36.
The like results for KCKQVKEKCKEEFVEEIKKLATQH [ZMYND11] were, in that order, 4.12 ± 0.15 and 4.14 ± 0.23.
Regarding KCQVGFSSSDLVMRARDSVYHIEC [ISL2], the protein stability index (treatment: DMSO) stood at 1.99 ± 0.36 and the protein stability index (treatment: MLN4924 1 uM, 8 h) was 2.3 ± 0.31.
The matching figures for KCRDLSALMHELSNDGARRQFEFY [BTBD10]: 2.06 ± 0.3 and 2.23 ± 0.3.
The like results for KEFQQVFIPECNDDGTYSQVQCHS [SMOC2] were, in that order, 4.01 ± 0.36 and 4.38 ± 0.29.
The like results for KEGRPGIPGLPGLRGLPGERGTPG [SCARA5] were, in that order, 4.21 ± 0.41 and 4.43 ± 0.24.
As to KENKDVIQKNKLKLTREQEELEEA [MNAT1], the protein stability index is, setting by setting: (treatment: DMSO) 5.49 ± 0.29; (treatment: MLN4924 1 uM, 8 h) 5.37 ± 0.31.
The like results for KEQDGREVDWEYFYGLLFTSENLK [DFFB] were, in that order, 2.617 ± 0.019 and 2.93 ± 0.01.
The matching figures for KEYPVVPRSTVRQKVASNHSPFSS [TBX5]: 3.61 ± 0.38 and 3.72 ± 0.32.
The like results for KFPGQSSFLWQRGRKFLQKHLNAS [TOR1AIP2] were, in that order, 2.47 ± 0.14 and 2.51 ± 0.22.
As for KFRAKGRKPCKLMLQVVKILVVTV [MCOLN1], the protein stability index reads like this: (treatment: DMSO) 2.51 ± 0.39; (treatment: MLN4924 1 uM, 8 h) 2.16 ± 0.19.
The matching figures for KFSYMWTINNFSFCREEMGEVLKS [SPOPL]: 2.34 ± 0.25 and 2.19 ± 0.42.
The matching figures for KGELAPELGEEPQPRDEEEAELEL [POLD4]: 5.44 ± 0.23 and 5.69 ± 0.13.
